Laboratory results published in article PMC2481302.

Target: human purified platelet factor 4/CXCL4 (human)
Assay: cell attachment assay; αvβ3-CHO and mock-transfected CHO cells plated on microtiter wells coated with CXCL4 or CXCL4/CTF at the indicated concentrations; 60 min at 37°C in serum-free medium with 0.5% BSA; attached cells stained with Coomassie blue, absorbance at 620 nm; also with 0.25 mM Mn2+ or 2 mM Mg2+

“human αvβ3 integrin on CHO cells (αvβ3-CHO, clone A06) (from UniProt P06756 31-1048; P05106 27-788) (receptor)” was tested, and the increase of cell attachment with Mn2+ or Mg2+ against no added cation was 25%.
